{"source": "patent US20200131270A1", "about": "(NATIONAL UNIVERSITY CORPORATION HOKKAIDO UNIVERSITY, published 2020)", "binders": {"B1": {"name": "canine PD-L1-His (ligand)", "chain": "FTITVSKDLYVVEYGGNVTMECKFPVEKQLNLFALIVYWEMEDKKIIQFVNGKEDLKVQHSSYSQRAQLLKDQLFLGKAALQITDVRLQDAGVYCCLIGYGGADYKRITLKVHAPYRNISQRISVDPVTSEHELMCQAEGYPEAEVIWTSSDHRVLSGKTTITNSNREEKLFNVTSTLNINATANEIFYCTFQRSGPEENNTAELVIPERLPVPASERTH"}}, "key": {"canine CD80-Ig": {"target": "T1, canine CD80-Ig (canine; rabbit)", "T1 construct": "extracellular domain;domain: Fc; also called cCD80-Ig; cCD80", "assay": "SPR (Biacore X100): cPD-L1-His captured by anti-histidine antibody on CM5 chip, canine CD80-Ig as analyte"}, "canine PD-1-Ig": {"target": "T2, canine PD-1-Ig (canine; rabbit)", "T2 construct": "extracellular domain;domain: Fc; also called cPD-1-Ig; cPD-1", "assay": "SPR (Biacore X100): cPD-L1-His captured by anti-histidine antibody on CM5 chip, canine PD-1-Ig as analyte"}}}
{"binder": "B1", "values": [{"measurement": "Kd", "setting": "canine CD80-Ig", "result": 24.3, "unit": "nM"}, {"measurement": "Kd", "setting": "canine PD-1-Ig", "result": 25.4, "unit": "nM"}]}
